Changes are numbered by the printed parent chain. Where two headings read alike, the source gives them in different places. One block for each binder: values may come before it.
Tests used:
[1] = target: T1, human interleukin-2 (hIL2) (human, UniProt P60568 21-153); experiment: cell-based or functional assay
[2] = target: T1, human interleukin-2 (hIL2); experiment: Cell Surface (binding to cell surface-associated hIL2), method not described; Cell Surface, not BiaCore
[3] = target: T2, human IL2 receptor on NKL cells (human, UniProt P01589 22-272; P14784 27-551; P31785 23-369); experiment: FACS on hIL2-deprived NKL cells without hIL2; fluorescence-labeled goat anti-human IgG detection
T2 construct: whole, on cells; also called hIL2 receptor; IL2 receptor component(s)
T2 sequence (looked up) 1: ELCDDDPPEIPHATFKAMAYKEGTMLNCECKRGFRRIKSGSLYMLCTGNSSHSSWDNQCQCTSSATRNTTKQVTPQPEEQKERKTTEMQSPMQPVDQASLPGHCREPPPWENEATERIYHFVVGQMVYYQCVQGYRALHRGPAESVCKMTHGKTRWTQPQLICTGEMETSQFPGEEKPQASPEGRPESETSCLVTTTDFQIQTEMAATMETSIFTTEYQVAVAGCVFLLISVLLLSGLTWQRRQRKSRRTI
T2 sequence (looked up) 2: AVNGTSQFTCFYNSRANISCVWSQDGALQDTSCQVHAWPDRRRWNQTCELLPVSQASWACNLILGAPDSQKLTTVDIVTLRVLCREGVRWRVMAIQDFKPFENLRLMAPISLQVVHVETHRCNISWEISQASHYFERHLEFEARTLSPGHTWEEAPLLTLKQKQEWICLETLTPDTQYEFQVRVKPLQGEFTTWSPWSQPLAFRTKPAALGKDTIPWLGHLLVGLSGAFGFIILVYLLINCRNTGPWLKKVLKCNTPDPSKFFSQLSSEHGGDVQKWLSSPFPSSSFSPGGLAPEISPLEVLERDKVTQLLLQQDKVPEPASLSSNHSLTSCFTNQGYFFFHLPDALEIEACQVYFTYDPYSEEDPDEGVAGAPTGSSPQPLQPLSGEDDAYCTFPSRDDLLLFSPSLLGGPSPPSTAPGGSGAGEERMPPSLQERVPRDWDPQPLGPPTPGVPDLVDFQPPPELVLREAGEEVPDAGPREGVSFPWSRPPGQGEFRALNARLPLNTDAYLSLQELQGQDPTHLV
T2 sequence (looked up) 3: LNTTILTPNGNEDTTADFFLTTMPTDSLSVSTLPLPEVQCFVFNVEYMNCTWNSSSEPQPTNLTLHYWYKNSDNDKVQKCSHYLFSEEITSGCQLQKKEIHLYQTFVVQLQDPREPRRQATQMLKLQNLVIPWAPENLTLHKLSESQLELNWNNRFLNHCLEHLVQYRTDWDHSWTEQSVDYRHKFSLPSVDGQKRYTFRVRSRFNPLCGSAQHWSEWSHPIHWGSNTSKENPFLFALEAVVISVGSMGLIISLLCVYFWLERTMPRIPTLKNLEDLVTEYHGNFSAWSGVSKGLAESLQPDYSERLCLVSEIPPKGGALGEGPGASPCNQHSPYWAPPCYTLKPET

[4] = target: T1, human interleukin-2 (hIL2); experiment: cell-based or functional assay; remark: listed apart in the source
[5] = target: T1, human interleukin-2 (hIL2); experiment: BiaCore, format not described
[6] = target: T3, Proleukin (formulated recombinant hIL2, expressed in E. coli), PEG-biotinylated (human, UniProt P60568 22-153, PEG-biotinylated (site not stated)); experiment: ELISA: PEG-biotinylated Proleukin on streptavidin plate, 293 cell supernatant antibody, anti-human IgG-HRP, ABTS, absorbance at 405 nm
T3 construct: also called PEG-biotinylated Proleukin; hIL2 antigen

[7] = target: T3, Proleukin (formulated recombinant hIL2, …); experiment: as above; remark: listed apart in the source
[8] = target: T3, Proleukin (formulated recombinant hIL2, …); experiment: as above; remark: listed apart in the source
[9] = target: T1, human interleukin-2 (hIL2); experiment: FACS on NKL cells loaded with recombinant hIL2

T1 sequence (P60568 21-153): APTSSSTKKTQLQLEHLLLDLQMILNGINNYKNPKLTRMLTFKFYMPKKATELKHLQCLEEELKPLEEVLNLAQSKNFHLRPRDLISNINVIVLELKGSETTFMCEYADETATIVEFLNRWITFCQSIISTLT

IC50, IL2-dependent proliferation of primary human NK cells (donor shown) [1]: ~0.3 nM
IC50 of IL2-dependent CD124 cell surface expression on CTLL-2 cells [1]: ~0.33 nM
Kd [2]: 2.5 nM
binding result [3]: no binding
IC50, IFN-gamma production by Human NK Cells [4]: 0.13 nM
IC50, Proliferation of Human Primary NK Cells [4]: 0.1 nM
Kd [5]: 0.68 nM
B1: Anti-IL2 (humanized anti-IL2 IgG1 antibody) (antibody, V domains shown)
VH: EVQLVESGGGLVQPGGSLRLSCAASGFTFSSYTLAWVRQAPGKGLEWVAAIDSSSYTYSPDTVRGRFTISRDNAKNSLYLQMNSLRAEDTAVYYCARDSNWDALDYWGQGTTVTVSS
VL: DIQMTQSPSSLSASVGDRVTITCKASQNVGTNVGWYQQKPGKAPKALIYSASFRYSGVPSRFSGSGSGTDFTLTISSLQPEDFATYYCQQYYTYPYTFGGGTKVEIKR
notes: IgG1; Its VL carries KAPKA in framework 2

EC50 (read off the curve) [6]: ~0.06 mg/L
B2: MHM + hHC (VL with human framework 2, mouse frameworks 1 and 3) (antibody, human IgG1, V domains shown)
VH: B1 VH
VL: DIVMTQSQKFMSTSVGDRVSVTCKASQNVGTNVGWYQQKPGKAPKLLIYSASFRYSGVPDRFTGSGSGTDFSLTISNVKSEDLAEYFCQQYYTYPYTFGGGTKLEIK
notes: Human IgG1 and human Ckappa

EC50 (read off the curve) [6]: ~0.06 mg/L
B3: HMH + hHC (VL with human frameworks 1 and 3, mouse framework 2) (antibody, V domains shown)
VH: B1 VH
VL: DIQMTQSPSSLSASVGDRVTITCKASQNVGTNVGWYQQKPGQSPKALIYSASFRYSGVPSRFSGSGSGTDFTLTISSLQPEDFATYYCQQYYTYPYTFGGGTKLEIK
notes: Human IgG1 and human Ckappa

EC50 (read off the curve) [7]: ~0.1 mg/L
B4: cLC + hHC (chimeric light chain with humanized heavy chain) (antibody, human IgG1, V domains shown)
VH: B1 VH
VL: B2 VL with K42Q, A43S, L46A
notes: Human IgG1 C1, C2, C3 and human Ckappa; Tested as 293 cell supernatant; also called cLH+hHC

EC50 (read off the curve) [8]: ~0.05 mg/L
B5: hLC_KAPKA + hHC (antibody, V domains shown)
VH: B1 VH
VL: B3 VL with Q42K, S43A, L104V
notes: Human IgG1 and human Ckappa

EC50 (read off the curve) [7]: ~0.2 mg/L
B6: hLC + hHC (humanized light chain with humanized heavy chain) (antibody, human IgG1, V domains shown)
VH: B1 VH
VL: B3 VL with Q42K, S43A, A46L, L104V
notes: Human IgG1 C1, C2, C3 and human Ckappa; Tested as 293 cell supernatant; also called hLH+hHC

EC50 (read off the curve) [6]: ~0.06 mg/L
B7: MMH + hHC (VL with human framework 3, mouse frameworks 1 and 2) (antibody, V domains shown)
VH: B1 VH
VL: B3 VL with Q3V, P8Q, S9K, S10F, L11M, A13T, T20S, I21V
notes: Human IgG1 and human Ckappa

EC50 (read off the curve) [6]: ~0.06 mg/L
B8: HMM + hHC (VL with human framework 1, mouse frameworks 2 and 3) (antibody, V domains shown)
VH: B1 VH
VL: B3 VL with S60D, S63T, T72S, S77N, L78V, Q79K, P80S, F83L, T85E, Y87F
notes: Human IgG1 and human Ckappa

binding result [9]: binds
B9: mAb202 (commercially available from R&D Systems) (antibody, V domains shown)
VH: DVRLVESGGGLVKPGGSLKLSCAAYGFTFSSYTLAWVRQTPEKRLEWVAAIDSSSYTYSPDTVRGRFTISRDNAKNTLYLQMSSLKSEDTAMYYCTRDSNWDALDYWGQGTSVIVSS
VL: B2 VL with K42Q, A43S, L46A
notes: Mouse monoclonal antibody; also called original mAb; parental mAb202

— patent US20080317746A1 (MICROMET, published 2008)
